Test results taken from patent US20100068186A1 (published 2010).

T1: catalytic sub-unit of the Telomerase protein peptide on HLA-A*02:01 (human)
T1 peptide: ILAKFLHWL

B1: TCR of SEQ ID NOs 15 and 23 (TCR, V domains shown)
Valpha: GIQVEQSPPDLILQEGANSTLRCNFSDSVNNLQWFHQNPWGQLINLFYIPSGTKQNGRLSATTVATERYSLLYISSSQTTDSGVYFCAVDSATTGMFGYIFGTGTRLKVLA
Vbeta: NAGVTQTPKFQVLKTGQSMTLQCAQDMNHEYMSWYRQDPGMGLRLIHYSVGAGITDQGEVPNGYNVSRSTTEDFPLRLLSAAPSQTSVYFCGIQPQGTEAFFGQGTRLTVV
B2: TCR of SEQ ID NOs 15 and 66 (TCR, V domains shown)
Valpha: GIQVEQSPPDLILQEGANSTLRCNFSDSVNNLQWFHQNPWGQLINLFYIPSGTKQNGRLSATTVATERYSLLYISSSQTTDSGVYFCAVDSATTGMFGYIFGTGTRLKVLA
Vbeta: NAGVTQTPKFQVLKTGQSMTLQCAQDMNHEYMSWYRQDPGMGLRLIHYSRWVGDTDQGEVPNGYNVSRSTTEDFPLRLLSAAPSQTSVYFCGIQPQGTEAFFGQGTRLTVV
B3: TCR of SEQ ID NOs 15 and 68 (TCR, V domains shown)
Valpha: GIQVEQSPPDLILQEGANSTLRCNFSDSVNNLQWFHQNPWGQLINLFYIPSGTKQNGRLSATTVATERYSLLYISSSQTTDSGVYFCAVDSATTGMFGYIFGTGTRLKVLA
Vbeta: NAGVTQTPKFQVLKTGQSMTLQCAQDMNHEYMSWYRQDPGMGLRLIHYSIWEFETDQGEVPNGYNVSRSTTEDFPLRLLSAAPSQTSVYFCGIQPQGTEAFFGQGTRLTVV
B4: TCR of SEQ ID NOs 15 and 69 (TCR, V domains shown)
Valpha: GIQVEQSPPDLILQEGANSTLRCNFSDSVNNLQWFHQNPWGQLINLFYIPSGTKQNGRLSATTVATERYSLLYISSSQTTDSGVYFCAVDSATTGMFGYIFGTGTRLKVLA
Vbeta: NAGVTQTPKFQVLKTGQSMTLQCAQDMNHEYMSWYRQDPGMGLRLIHYSIWEFETDQGEVPNGYNVSRSTTEDFPLRLLSAAPSQTSVYFCGVQPQGTEAFFGQGTRLTVV
B5: TCR of SEQ ID NOs 21 and 65 (TCR, V domains shown)
Valpha: GIQVEQSPPDLILQEGANSTLRCNFSDSVNNLQWFHQNPWGQLINLFYIPSGTKQNGRLSATTVATERYSLLYISSSQTTDSGVYFCAVDSATSGMFGYIFGTGTRLKVLA
Vbeta: NAGVTQTPKFQVLKTGQSMTLQCAQDMNHEYMSWYRQDPGMGLRLIHYSRWVGDTDQGEVPNGYNVSRSTTEDFPLRLLSAAPSQTSVYFCGVQPQGTEAFFGQGTRLTVV
B6: TCR of SEQ ID NOs 15 and 70 (TCR, V domains shown)
Valpha: GIQVEQSPPDLILQEGANSTLRCNFSDSVNNLQWFHQNPWGQLINLFYIPSGTKQNGRLSATTVATERYSLLYISSSQTTDSGVYFCAVDSATTGMFGYIFGTGTRLKVLA
Vbeta: NAGVTQTPKFQVLKTGQSMTLQCAQDMNHEYMSWYRQDPGMGLRLIHYSICWGCTDQGEVPNGYNVSRSTTEDFPLRLLSAAPSQTSVYFCGVQPQGTEAFFGQGTRLTVV

Molecular target: T1, catalytic sub-unit of the Telomerase …
Assay: Kd or kinetics

Binding result, recognises:
B1, B2, B3, B4, B5, B6
